Assay [1] deals with cytoplasmic domain of Salmonella enterica serovar Typhimurium FlhA (FlhA^C) (UniProt P40729). Description: ITC. Conditions: read off a plot.
For assay [2], the target named is cytoplasmic domain of Salmonella enterica serovar Typhimurium FlhA (FlhA^C) (Salmonella enterica serovar Typhimurium ST313) (UniProt P40729). The experiment in a line: ITC; FlhA^C and variants (0.1–0.2 mM) in the cell, FliT-FliD, FliS-FliC and variants (1.0–2.0 mM) in the syringe; 25 °C; 50 mM NaPi pH 6.8, 300 mM NaCl, 0.05% NaN3; one-site binding model.
In assay [3] the target is fused FliS−FliC^C construct (FliC^C fused to the C terminus of FliS) (UniProt P06179). The experiment in a line: ITC. To be noted: read off a plot.

For five substances, ratio to parent and Kd results are on record in paper PMC5932034.

As to “fused FliT−FliD^C construct (FliD^C fused to the N terminus of FliT) (from UniProt P16328) I93D”, the ratio to parent in assay [1] came to 3.3 fold. As a reminder, the Kd is the equilibrium constant for the complex coming apart. Regarding “fused FliT−FliD^C construct (FliD^C fused to the N terminus of FliT) (from UniProt P16328)”, the Kd in assay [2] was determined as 20 µM. Take “cytoplasmic domain of Salmonella enterica serovar Typhimurium FlhA (FlhA^C) (from UniProt P40729) L476A”: in assay [3], the ratio to parent is 8 fold. As for “fused FliT−FliD^C construct (FliD^C fused to the N terminus of FliT) (from UniProt P16328) R98D”, the ratio to parent in assay [1] turned out to be 4.5 fold. Substance “fused FliS−FliC^C construct (FliC^C fused to the C terminus of FliS) (from UniProt P06179 454-495)” displayed a Kd in assay [2] of 10 µM.
